Measured values reported in patent US6344546 (RHONE POULENC RORER, dated 2002).

Tests used:
[1] = target: T1, human bek (bacterially expressed kinase) fibroblast growth factor receptor (human, UniProt P21802 22-821); assay: Scatchard analysis of saturation binding, additional experiments
T1 construct: whole, on cells; Three-Ig-domain form, 135 kDa glycoprotein on transfected NIH 3T3 cells; Clone Nbek8 was used with aFGF and bFGF, clone NBek13 with kFGF; also called bek8; NBek8
Description: (§1) Fibronectin-coated 24 well dishes containing 1×10^5 cells/well were placed on ice, and the wells were rinsed twice with cold binding buffer (DMEM, 1 mg/ml BSA, 5 U/ml heparin, 50 mM Hepes, pH 7.4). […] Nonspecific binding was obtained using the same serial dilutions but in the presence of 100 fold molar excess of non-radioactive aFGF. After incubation, the cells were placed on ice and rinsed twice with ice cold binding buffer minus heparin and then solubilized in 0.3N NaOH 37° C., 15 minutes.
(§2) Equilibrium Binding Analysis of flg and bek Radioloabled with Acidic, Basic and k-fibroblast Growth Factors Acidic and basic FGF were radioiodinated and purified on heparin-Sepharose as described above. The dissociation constants of bek and flg for aFGF and bFGF were established by saturation binding analysis of the overexpressing cell lines with the iodinated ligands. Binding of both aFGF and bFGF to bek and flg was specific and saturable (FIG. 6A, inserts).

[2] = target: T1, human bek (bacterially expressed …); assay: saturation binding of [125I]aFGF to bek8 cells with excess unlabelled aFGF or bFGF
Description: (§3) The background counts in the presence of a 100 fold molar excess of either ligand was always less than 10% of the total cpm at each point. The scale on the Scatchard analysis is the same in each panel.
as §1
as §2, with “inserts). […] Scatchard, (*Ann. N.Y. Acad.” for “inserts).”

[3] = target: T2, human flg (fms-like gene) fibroblast growth factor receptor (human, UniProt P11362 22-822); assay: saturation binding of [125I]aFGF to flg26 cells with excess unlabelled aFGF or bFGF
T2 construct: whole, on cells; Three-Ig-domain form, 150 kDa glycoprotein on transfected NIH 3T3 cells; also called flg26; NFlg26
Description: as §3, §1
as §2, with “inserts). […] Scatchard, (*Ann. N.Y. Acad.” for “inserts).”

[4] = target: T1, human bek (bacterially expressed …); assay: Scatchard analysis of [125I]aFGF saturation binding to bek overexpressing NIH 3T3 cells
Description: as §3, §1
as §2, with “inserts). […] Scatchard, (*Ann. N.Y. Acad.” for “inserts).”

[5] = target: T2, human flg (fms-like gene) fibroblast …; assay: Scatchard analysis of [125I]aFGF saturation binding to flg overexpressing NIH 3T3 cells
Description: The scale on the Scatchard analysis is the same in each panel.
as §1, §2

[6] = target: T1, human bek (bacterially expressed …); assay: Scatchard analysis of [125I]kFGF saturation binding to bek13 cells
[7] = target: T2, human flg (fms-like gene) fibroblast …; assay: Scatchard analysis of [125I]kFGF saturation binding to flg26 cells
[8] = target: T2, human flg (fms-like gene) fibroblast …; assay: Scatchard analysis of saturation binding to flg overexpressing cells, kFGF against bFGF
Description: as §1, §2

T2 sequence (P11362 22-822): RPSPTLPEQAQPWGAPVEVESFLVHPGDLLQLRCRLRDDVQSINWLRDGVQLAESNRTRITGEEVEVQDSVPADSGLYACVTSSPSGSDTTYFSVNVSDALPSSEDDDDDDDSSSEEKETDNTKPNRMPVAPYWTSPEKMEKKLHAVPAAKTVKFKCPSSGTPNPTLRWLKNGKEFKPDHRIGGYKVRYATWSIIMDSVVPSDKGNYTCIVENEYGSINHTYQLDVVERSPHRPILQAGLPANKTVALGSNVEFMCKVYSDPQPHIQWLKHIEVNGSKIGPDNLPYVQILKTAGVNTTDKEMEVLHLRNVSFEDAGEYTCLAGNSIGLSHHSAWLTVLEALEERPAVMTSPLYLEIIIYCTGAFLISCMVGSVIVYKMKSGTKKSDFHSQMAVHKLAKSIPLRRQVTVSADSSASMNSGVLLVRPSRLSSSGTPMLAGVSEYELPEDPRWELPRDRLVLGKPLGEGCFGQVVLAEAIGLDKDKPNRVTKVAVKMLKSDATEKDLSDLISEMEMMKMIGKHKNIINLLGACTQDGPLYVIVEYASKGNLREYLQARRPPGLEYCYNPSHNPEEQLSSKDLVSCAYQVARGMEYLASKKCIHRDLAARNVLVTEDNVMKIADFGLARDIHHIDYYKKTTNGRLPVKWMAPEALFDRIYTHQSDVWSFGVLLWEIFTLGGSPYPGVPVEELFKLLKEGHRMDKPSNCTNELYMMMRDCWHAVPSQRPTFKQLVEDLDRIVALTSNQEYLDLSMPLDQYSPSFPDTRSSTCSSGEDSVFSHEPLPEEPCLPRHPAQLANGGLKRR
T1 sequence (P21802 22-821): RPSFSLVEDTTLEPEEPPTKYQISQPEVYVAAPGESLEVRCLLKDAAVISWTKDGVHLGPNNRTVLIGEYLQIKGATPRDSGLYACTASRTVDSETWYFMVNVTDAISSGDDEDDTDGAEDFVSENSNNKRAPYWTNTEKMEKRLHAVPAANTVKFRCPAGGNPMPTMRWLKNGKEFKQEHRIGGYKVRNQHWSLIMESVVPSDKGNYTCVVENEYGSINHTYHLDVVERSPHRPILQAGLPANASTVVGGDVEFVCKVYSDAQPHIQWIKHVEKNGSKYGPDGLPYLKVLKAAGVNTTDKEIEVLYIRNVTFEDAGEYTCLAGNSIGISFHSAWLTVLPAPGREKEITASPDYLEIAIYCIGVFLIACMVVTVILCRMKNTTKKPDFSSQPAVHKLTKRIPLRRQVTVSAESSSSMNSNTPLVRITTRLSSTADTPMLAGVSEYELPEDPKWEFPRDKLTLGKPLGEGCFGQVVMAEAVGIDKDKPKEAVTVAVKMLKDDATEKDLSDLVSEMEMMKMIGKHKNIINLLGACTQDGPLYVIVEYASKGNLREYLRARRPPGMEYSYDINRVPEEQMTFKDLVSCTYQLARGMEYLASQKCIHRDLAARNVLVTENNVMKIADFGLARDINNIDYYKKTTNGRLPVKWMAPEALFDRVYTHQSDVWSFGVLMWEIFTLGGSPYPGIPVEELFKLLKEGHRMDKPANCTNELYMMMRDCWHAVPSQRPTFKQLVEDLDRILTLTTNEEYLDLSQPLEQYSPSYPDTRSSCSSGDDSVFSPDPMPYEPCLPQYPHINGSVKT

Row | Binder | Kd [1] | background counts with 100 fold molar excess of either ligand, % of total cpm [2] | background counts with 100 fold molar excess of either ligand, % of total cpm [3] | Kd [4] | Kd [5] | Kd [6] | Kd [7] | fold less avidity than bFGF [8]
1 | bovine derived acidic fibroblast growth factor (ligand, UniProt P03968 16-155, looked up, radioiodinated (125I) by Enzymobeads where used as labelled ligand, Purified from a bovine source; also called aFGF; acidic FGF) FNLPLGNYKKPKLLYCSNGGYFLRILPDGTVDGTKDRSDQHIQLQLCAESIGEVYIKSTETGQFLAMDTDGLLYGSQTPNEECLFLERLEENHYNTYISKKHAEKHWFVGLKKNGRSKLGPRTHFGQKAILFLPLPVSSD | 0.04 to 0.1 nM | < 10% | < 10% | 0.047 nM | 0.024 nM |  |  | 
2 | human recombinant kFGF (ligand, UniProt P08620 31-206, looked up, radioiodinated (125I) by Enzymobeads, also called hst/kFGF) APTAPNGTLEAELERRWESLVALSLARLPVAAQPKEAAVQSGAGDYLLGIKRLRRLYCNVGIGFHLQALPDGRIGGAHADTRDSLLELSPVERGVVSIFGVASRFFVAMSSKGKLYGSPFFTDECTFKEILLPNNYNAYESYKYPGMFIALSKNGKTKKGNRVSPTMKVTHFLPRL |  |  |  |  |  | 0.08 nM | 0.32 nM | 4 fold
